In article PMC11871015, “Unraveling the molecular basis of substrate specificity and halogen activation in vanadium-dependent haloperoxidases” (Nature Communications, 2025):

Legend:
[1] = target: T1, AmVHPO (vanadium-dependent haloperoxidase from Acaryochloris marina) (Acaryochloris marina, UniProt B0C4R0, R425S); assay: X-ray co-crystal structure; type: binding; conditions: 1 mM TMB; phosphate in place of vanadate; site at interface of two adjacent subunits (Glu139, Gln399, Phe401); pH 8.5; 20 °C
T1 construct: gene AM1_4975; codon-optimized synthetic gene in pET28-based vector, His-tag, E. coli BL21 (DE3); dodecamer (hexamer of dimers); active site/substrate tunnel formed by two adjacent subunits
T1 sequence (B0C4R0 entry or part of it R425S): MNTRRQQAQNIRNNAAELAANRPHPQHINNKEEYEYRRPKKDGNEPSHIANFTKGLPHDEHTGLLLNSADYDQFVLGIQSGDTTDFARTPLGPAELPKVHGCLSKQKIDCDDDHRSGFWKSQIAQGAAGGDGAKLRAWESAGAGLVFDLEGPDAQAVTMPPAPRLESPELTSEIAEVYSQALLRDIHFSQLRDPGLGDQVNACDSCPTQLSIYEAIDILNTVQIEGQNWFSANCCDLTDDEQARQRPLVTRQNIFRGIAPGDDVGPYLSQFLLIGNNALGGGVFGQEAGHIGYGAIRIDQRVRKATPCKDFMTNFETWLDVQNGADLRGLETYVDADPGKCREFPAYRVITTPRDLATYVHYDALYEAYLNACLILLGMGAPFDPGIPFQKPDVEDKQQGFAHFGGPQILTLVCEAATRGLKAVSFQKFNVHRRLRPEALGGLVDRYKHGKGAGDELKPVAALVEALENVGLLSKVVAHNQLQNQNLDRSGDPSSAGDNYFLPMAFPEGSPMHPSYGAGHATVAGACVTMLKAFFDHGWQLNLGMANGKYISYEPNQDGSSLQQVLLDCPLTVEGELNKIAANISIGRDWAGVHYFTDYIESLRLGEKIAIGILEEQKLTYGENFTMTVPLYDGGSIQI

[2] = target: AmVHPO R425D mutant (vanadium-dependent haloperoxidase from Acaryochloris marina, R425D) (Acaryochloris marina MBIC 11017); assay: crystal structure; hanging drop vapor diffusion at 20 °C, protein 15 mg/mL, reservoir 0.1 M Tris pH 8.5, 2 M NH4H2PO4, 0.5 mM K3VO4; R425S solved without and with 1 mM 1,3,5-trimethoxybenzene (TMB)
[3] = target: AmVHPO R425S mutant (vanadium-dependent haloperoxidase from Acaryochloris marina, R425S) (Acaryochloris marina MBIC 11017); assay: as above

Molecule: COc1cc(OC)cc(OC)c1 [compound 7, 1,3,5-trimethoxybenzene]
- X-ray co-crystal structure [1]: 8Q22 (AmVHPO R425S mutant with TMB)

Molecule: AmVHPO R425D mutant (vanadium-dependent haloperoxidase from Acaryochloris marina, R425D) (enzyme)
- stoichiometry N [2]: 12

Molecule: AmVHPO R425S mutant (vanadium-dependent haloperoxidase from Acaryochloris marina, R425S) (enzyme)
- stoichiometry N [3]: 12
